# Data taken from patent publication US7629443.
# Assays:
# RBD-Fc (SARS-CoV; human) [1] = biological target: RBD-Fc (SARS-CoV; human) (UniProt P59594); assay: ELISA, antigen coated 1 µg/ml, mAb 10 µg/ml
# S1-C9 (SARS-CoV) = S1-C9 (SARS-CoV) (UniProt P59594); assay: ELISA, antigen coated 1 µg/ml, mAb 10 µg/ml
# [2] = biological target: DTT-reduced RBD-Fc (SARS-CoV; human) (UniProt P59594); assay: ELISA, antigen coated 1 µg/ml, mAb 10 µg/ml
# [3] = biological target: DTT-reduced S1-C9 (SARS-CoV) (UniProt P59594); assay: ELISA, antigen coated 1 µg/ml, mAb 10 µg/ml
# RBD-Fc (SARS-CoV; human) [4] = biological target: RBD-Fc (SARS-CoV; human) (UniProt P59594); assay: competitive ELISA on coated RBD-Fc; competitor: biotinylated 17H9
# [5] = biological target: SARS-CoV S protein on SARS pseudovirus (SARS-CoV) (UniProt P59594); assay: cell-based or functional assay
# RBD-Fc (SARS-CoV; human) [6] = biological target: RBD-Fc (SARS-CoV; human) (UniProt P59594); assay: competitive ELISA on coated RBD-Fc; competitor: biotinylated 33G4
# RBD-Fc (SARS-CoV; human) [7] = biological target: RBD-Fc (SARS-CoV; human) (UniProt P59594); assay: competitive ELISA on coated RBD-Fc; competitor: biotinylated 10E7
# RBD-Fc (SARS-CoV; human) [8] = biological target: RBD-Fc (SARS-CoV; human) (UniProt P59594); assay: competitive ELISA on coated RBD-Fc; competitor: biotinylated 45B5
# RBD-Fc (SARS-CoV; human) [9] = biological target: RBD-Fc (SARS-CoV; human) (UniProt P59594); assay: competitive ELISA on coated RBD-Fc; competitor: biotinylated 11E12
substance,measurement,setting,value
4D5 (antibody),reactivity (absorbance at 450 nm),RBD-Fc (SARS-CoV; human) [1],0.88
same,reactivity (absorbance at 450 nm),S1-C9 (SARS-CoV),0.65
same,reactivity (absorbance at 450 nm),[2],1.36
same,reactivity (absorbance at 450 nm),[3],0.94
same,% inhibition,RBD-Fc (SARS-CoV; human) [4],-10.5%
same,"ND50, neutralization of SARS pseudovirus infection of 293T/ACE2 cells",[5],> 100 µg/mL
same,% inhibition,RBD-Fc (SARS-CoV; human) [6],-11.1%
same,% inhibition,RBD-Fc (SARS-CoV; human) [7],13%
same,% inhibition,RBD-Fc (SARS-CoV; human) [8],1%
same,% inhibition,RBD-Fc (SARS-CoV; human) [9],10.6%
